We go through one molecule from patent US20230203559A1, “METHOD FOR QUANTIFYING ETHANOLAMINE PHOSPHATE, OXIDOREDUCTASE FOR QUANTIFICATION, QUANTIFICATION COMPOSITION, QUANTIFICATION KIT, SENSOR CHIP, AND SENSOR” (KIKKOMAN CORPORATION, priority 2020, published 2023).

Test [1] in a line: Verification of EAP to EA conversion reaction by ALP, detected with LrHP (4-AA/TOOS/POD, absorbance at 555 nm). Format: biochemical. To be noted: 1 mM EAP, LrHP final 25 pg/ml, pH 8.0, 300 seconds. Here is the method:
A reagent for activity measurement of the following composition was prepared.
A sample containing 1 mM EA was mixed with the reaction reagent (pH 8.0) shown in Table 2 in a 1.5 ml microtube at 4° C. 2 μl of ALP (so that the final concentration is 5 U/ml) was added thereto and incubated at 37° C. for 5 minutes. 20 μl of LrHP (so that the final concentration is 25 pg/ml) was added thereto, mixed by pipetting, transferred to a cuvette, and immediately set in a spectrophotometer (U-3900, manufactured by Hitachi High-Tech Science Corporation), and the absorbance at 555 nm was measured over time for 300 seconds.
Similarly, a sample containing 1 mM EAP was used, and 2 μl of alkaline phosphatase (ALP) or water was added to the reaction reagent (pH 8.0) (so that the final concentration is 5 U/ml) and incubated at 37° C. for 5 minutes. Next, 20 μl of LrHP (so that the final concentration is 25 pg/ml) was added thereto, mixed by pipetting, transferred to a cuvette, and immediately set in a spectrophotometer, and the absorbance at 555 nm was measured over time for 300 seconds.
The time immediately after the addition of LrHP is set to 0 seconds from the start of the measurement. […] This linear increase in absorbance was similar to the tendency to increase in the case where EA was directly used as a substrate instead of acting phosphatase on EAP.

Test [2] is described as follows: Measurement of EAP combined with ALP and LrHP in plasma model solution containing contaminating amines. Format: biochemical. The procedure: The reaction reagent (pH 8.0) shown in Table 2 was mixed in a 1.5 ml microtube at 4° C. and incubated at 37° C. for 2 minutes. In this case, 47 μl of LrHP was added (so that the final concentration is 1 mg/ml). […] The measurement was paused, 10 μl of alkaline phosphatase (25 U/ml) was added to the cuvette, mixed by pipetting, and immediately set in a spectrophotometer, and the absorbance at 555 nm was measured over time for 500 seconds.

B1: LrHP: hypothetical protein (GenBank ID CDS02610.1), amino acid sequence SEQ ID NO: 11, derived from Lichtheimia ramosa; oxidase acting on EA (protein, listed as Lichtheimia ramosa)
chain: MSSSPIKPYPLDPLTADEIRRAAALIRETRGQDTTYVFNSLTLKEPSKQQMMSYLGWTNSPSHPKPVTIDREVFAVLIDRPSGLVHEMTVNLDKNQVTRWNKVEGRQPTVNVFEMLEAEREILKDERVKEQCRQLGINDMSMVFADPWGVGYHEIKGKRLVQALMYARTSPDDNQYAHPLDFNPLYDVNAKKVIDIIVSKRRNSSFDRPVIPMANHHFLPEHLGQDRLRKDIKPIEITQPQGVSFSIRDGHQLHWQKWDMHLSFNYREGLVINNLSYRDMDGTVRPIIYRMSLSEMVVPYANPYKPYNHKMAFDVGEYGLGNLTNSLELGCDCVGKICYLDATLSDLNGDPWQIPNAICIHEEDTGLLFKHTDYRTGKAHSARSRRLVISHIVTAANYDYGLYYYFYQDGTIQYEVKATGELNTQVLAADEDAAPYGTIVAPQVDAQHHQHLFSMRIDPMVDGPNNSVAEVDVVASDLPVGHPHNSIGNSFYPVTKVFNTTDEAKTMASIERHRSWKIINENKIHPYAKQPVGFKMMAHPTPPLLPKPGSIVYERAMFASKTLWVTPYNEEQRYPGGFYCYQSEPSENLGLPQWTKETQNVRDTDIVCWLNFGITHIPRVEDFPIMPIETCGVMLKPVNFFLGNPGIDIPPSTRQSTKSAYATEATCCRKNNL
For B1, the “change in absorbance at 555 nm (EAP oxidization activity)” value is “increase in absorbance with time was observed” in test [1] (ALP added (final 5 U/ml, 37° C., 5 minutes)) and “no change in absorbance was observed” in test [1] (ALP not added). In test [2] (LrHP final 1 mg/ml, EA 10.4 μM, β-alanine 29 μM, taurine 39.5 μM, EAP 1.5 μM, after 500 seconds), the “elimination of EA in the sample” value is “the EA in the sample was exhausted”. In addition, the “change in absorbance at 555 nm after 500 seconds” value in test [2] (water added instead of ALP, final EAP 1.5 μM) is reported as “No change in absorbance occurred”.
